Laboratory results taken from article PMC6561087 (Nature, 2019).

T1: IFNγR1, wild type, recombinant soluble receptor captured on the SPR chip (UniProt P15260 18-245)
T1 sequence (looked up): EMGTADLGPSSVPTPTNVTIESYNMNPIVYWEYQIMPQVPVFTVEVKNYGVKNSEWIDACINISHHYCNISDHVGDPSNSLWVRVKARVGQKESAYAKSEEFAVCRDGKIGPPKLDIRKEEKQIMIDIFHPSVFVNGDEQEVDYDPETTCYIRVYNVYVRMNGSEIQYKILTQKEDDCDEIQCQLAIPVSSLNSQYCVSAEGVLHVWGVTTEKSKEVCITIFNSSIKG


How the values were obtained:
[1] = molecular target: 2:2 IFNγ–IFNγR1 intermediate complex (wild type), formed on the SPR chip (UniProt P15260); assay: SPR
[2] = molecular target: T1, IFNγR1, wild type, recombinant soluble …; assay: SPR

Kd [1] [µM]	binding result [2]	Binder
5	–	IFNγR2, wild type, recombinant soluble receptor (receptor) SQLPAPQHPKIRLYNAEQVLSWEPVALSNSTRPVVYQVQFKYTDSKWFTADIMSIGVNCTQITATECDFTAASPSAGFPMDFNVTLRLRAELGALHSAWVTMPWFQHYRNVTVGPPENIEVTPGEGSLIIRFSSPFDIADTSTAFFCYYVHYWEKGGIQQVKGPFRSNSISLDNLKPSRVYCLQVQAQLLWNKSNIFRVGHLSNISCYETMADASTELQQ
–	binds	IFNγ(K74A/E75Y/N83R) triple mutant (ligand) QDPYVKEAENLKKYFNAGHSDVADNGTLFLGILKNWKEESDRKIMQSQIVSFYFKLFKNFKDDQSIQKSVETIAYDMNVKFFRSNKKKRDDFEKLTNYSVTDLNVQRKAIHELIQVMAELSPAAKTGKRKRSQ
